Laboratory results reported in paper PMC11882521, “Cofactor engineering for improved production of 2,4-dihydroxybutyric acid via the synthetic homoserine pathway” (Frontiers in Bioengineering and Biotechnology, 2025).

Experiments:
[1] = target: T1, Ec.Mdh^5Q D34G (OHB reductase, engineered E. coli malate dehydrogenase) (Escherichia coli, UniProt P61889, I12V/D34G/R81A/M85Q/D86S/G179D); test: specific activity of purified enzyme at […] OHB and […] NADH; format: biochemical
T1 construct: N-terminally 6x-His-tagged
T1 sequence (P61889 whole entry I12V/D34G/R81A/M85Q/D86S/G179D): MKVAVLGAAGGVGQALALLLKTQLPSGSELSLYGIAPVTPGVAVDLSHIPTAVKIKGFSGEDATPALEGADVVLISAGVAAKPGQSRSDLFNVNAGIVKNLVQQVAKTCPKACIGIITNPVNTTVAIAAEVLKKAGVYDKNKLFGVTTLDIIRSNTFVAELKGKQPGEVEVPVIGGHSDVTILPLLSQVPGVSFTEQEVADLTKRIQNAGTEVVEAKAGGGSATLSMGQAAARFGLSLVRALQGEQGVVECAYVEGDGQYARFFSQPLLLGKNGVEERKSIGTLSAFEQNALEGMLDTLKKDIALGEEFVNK

[2] = target: T1, Ec.Mdh^5Q D34G (OHB reductase, engineered E. coli malate dehydrogenase); test: specific activity of purified enzyme at […] OHB and […] NADPH; format: biochemical
[3] = tested on: T2, NC(=O)C1=CN([C@@H]2O[C@H](COP(=O)(O)OP(=O)(O)OC[C@H]3O[C@@H](n4cnc5c(N)ncnc54)[C@H](O)[C@@H]3O)[C@@H](O)[C@H]2O)C=CC1; test: purified protein; format: biochemical, Escherichia coli; settings: co-enzyme binding site, varied: cofactor
T2 construct: N-terminally 6x-His-tagged

[4] = tested on: T3, NC(=O)C1=CN([C@@H]2O[C@H](COP(=O)(O)OP(=O)(O)OC[C@H]3O[C@@H](n4cnc5c(N)ncnc54)[C@H](OP(=O)(O)O)[C@@H]3O)[C@@H](O)[C@H]2O)C=CC1; test: purified protein; format: biochemical, Escherichia coli; settings: varied: cofactor
T3 construct: N-terminally 6x-His-tagged

O=C(O)C(=O)CCO = tested on: T4, O=C(O)C(=O)CCO; test: purified protein; format: biochemical, Escherichia coli
T4 construct: N-terminally 6x-His-tagged

[5] = Asp34 confers cofactor specificity
[6] = co-enzyme binding site, Asp34 disfavours the […]'-phosphate group
[7] = […]'-phosphate group near positions […] and […] (selectivity control loop, cofactor binding motif of the Rossmann fold)
[8] = NADPH uncompetitive substrate inhibition (Ki =[…])

NC(=O)C1=CN([C@@H]2O[C@H](COP(=O)(O)OP(=O)(O)OC[C@H]3O[C@@H](n4cnc5c(N)ncnc54)[C@H](O)[C@@H]3O)[C@@H](O)[C@H]2O)C=CC1 [NADH]
specific activity of purified enzyme at 2 mM OHB and 0.25 mM NADH [1]: 23 ± 2 U mg^−1 (specific activity)

NC(=O)C1=CN([C@@H]2O[C@H](COP(=O)(O)OP(=O)(O)OC[C@H]3O[C@@H](n4cnc5c(N)ncnc54)[C@H](OP(=O)(O)O)[C@@H]3O)[C@@H](O)[C@H]2O)C=CC1 [NADPH]
specific activity of purified enzyme at 2 mM OHB and 0.25 mM NADPH [2]: 35 ± 3 U mg^−1 (specific activity)

Ec.Mdh^5Q (OHB reductase, engineered E. coli malate dehydrogenase) (Escherichia coli K-12; D86S/G179D/I12V/M85Q/R81A)
Km [3, 5]: 40 µM | Vmax [3, 5]: 67.7 µmol/min/mg | kcat [3, 5]: 36.5 ± 1.68 s⁻¹ | kcat/Km [3, 5]: 1.03e+06 ± 67500 M⁻¹ s⁻¹ | Km [4, 6]: 320 µM | Vmax [4, 6]: 5.56 µmol/min/mg | kcat [4, 6]: 2.99 ± 0.35 s⁻¹ | kcat/Km [4, 6]: 9500 ± 50 M⁻¹ s⁻¹ | Km (O=C(O)C(=O)CCO; NADH): 1840 µM | Vmax (O=C(O)C(=O)CCO; NADH): 138 µmol/min/mg | kcat (O=C(O)C(=O)CCO; NADH): 74.9 ± 5.63 s⁻¹ | kcat/Km (O=C(O)C(=O)CCO; NADH): 44900 ± 15200 M⁻¹ s⁻¹

Ec.Mdh^7Q (OHB reductase, engineered E. coli malate dehydrogenase) (Escherichia coli K-12; D34G/D86S/G179D/I12V/I35R/M85Q/R81A)
Km [3]: 270 µM | Vmax [3]: 20 µmol/min/mg | kcat [3]: 10.8 ± 1.07 s⁻¹ | kcat/Km [3]: 40400 ± 1710 M⁻¹ s⁻¹ | Km [4, 7]: 100 µM | Vmax [4, 7]: 119 µmol/min/mg | kcat [4, 7]: 64 ± 9.97 s⁻¹ | kcat/Km [4, 7]: 645000 ± 76200 M⁻¹ s⁻¹ | Km (O=C(O)C(=O)CCO; [8]): 1080 µM | Vmax (O=C(O)C(=O)CCO; [8]): 155 µmol/min/mg | kcat (O=C(O)C(=O)CCO; [8]): 83.4 ± 3.4 s⁻¹ | kcat/Km (O=C(O)C(=O)CCO; [8]): 80300 ± 17300 M⁻¹ s⁻¹
